The values that follow are results of earlier work, collected in paper PMC8776070.

The target in series [1] is ACKR1 (Homo sapiens) (UniProt Q16570).
Series [2] concerns the target CXCR2 (Homo sapiens) (UniProt P25025).
Series [3] has as its target CXCR1 (Homo sapiens) (UniProt P25024).
UniProt P25024, sequence (P25024 whole entry): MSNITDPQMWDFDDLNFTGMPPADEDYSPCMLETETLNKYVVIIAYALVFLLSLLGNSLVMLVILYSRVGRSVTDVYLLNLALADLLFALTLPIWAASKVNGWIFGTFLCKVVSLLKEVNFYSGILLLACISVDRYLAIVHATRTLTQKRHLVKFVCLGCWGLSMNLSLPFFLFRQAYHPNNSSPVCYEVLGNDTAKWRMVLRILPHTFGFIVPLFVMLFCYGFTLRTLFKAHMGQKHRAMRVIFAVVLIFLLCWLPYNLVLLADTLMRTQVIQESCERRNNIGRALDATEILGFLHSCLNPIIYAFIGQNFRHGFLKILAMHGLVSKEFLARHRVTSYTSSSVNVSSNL

UniProt Q16570, sequence (Q16570 whole entry): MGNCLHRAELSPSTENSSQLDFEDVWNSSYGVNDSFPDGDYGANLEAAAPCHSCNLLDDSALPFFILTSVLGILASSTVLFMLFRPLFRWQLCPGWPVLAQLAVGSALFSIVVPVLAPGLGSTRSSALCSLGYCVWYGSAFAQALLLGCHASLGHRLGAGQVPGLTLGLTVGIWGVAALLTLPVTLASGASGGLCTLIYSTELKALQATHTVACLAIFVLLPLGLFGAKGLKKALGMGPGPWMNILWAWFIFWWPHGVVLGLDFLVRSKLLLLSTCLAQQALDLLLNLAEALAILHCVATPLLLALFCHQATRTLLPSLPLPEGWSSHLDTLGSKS
UniProt P25025, sequence (P25025 whole entry): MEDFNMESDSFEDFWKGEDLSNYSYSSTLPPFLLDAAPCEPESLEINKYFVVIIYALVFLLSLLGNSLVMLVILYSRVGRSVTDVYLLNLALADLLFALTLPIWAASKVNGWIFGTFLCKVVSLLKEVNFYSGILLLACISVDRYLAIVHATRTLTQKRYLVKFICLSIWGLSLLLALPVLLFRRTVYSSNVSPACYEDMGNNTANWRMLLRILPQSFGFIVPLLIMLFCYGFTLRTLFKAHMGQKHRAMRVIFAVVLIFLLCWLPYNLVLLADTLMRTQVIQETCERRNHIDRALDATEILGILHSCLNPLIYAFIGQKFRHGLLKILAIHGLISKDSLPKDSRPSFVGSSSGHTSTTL

On to CXCL1 (from UniProt P09341), for which the Kd (usually the free concentration of one partner at which half of the binding sites on the other are occupied at equilibrium, for simple one-to-one binding) in series [1] is 1.81 nM; in series [2], 3 nM; in series [3] it was 300 nM.
